The values that follow come from patent EP1662255A2 (THE JOHNS HOPKINS UNIVERSITY SCHOOL OF MEDICINE, dated 2006).

The labels stand for the following.
T1: carboxy-terminal 347 amino acids of GKAP-3 (amino-terminal myc tag) (rat, UniProt P97838 631-977)
T1 construct: domain: carboxy-terminal 347 amino acids; also called GKAP-3/SAPAP3 carboxy-terminus
T1 sequence (looked up): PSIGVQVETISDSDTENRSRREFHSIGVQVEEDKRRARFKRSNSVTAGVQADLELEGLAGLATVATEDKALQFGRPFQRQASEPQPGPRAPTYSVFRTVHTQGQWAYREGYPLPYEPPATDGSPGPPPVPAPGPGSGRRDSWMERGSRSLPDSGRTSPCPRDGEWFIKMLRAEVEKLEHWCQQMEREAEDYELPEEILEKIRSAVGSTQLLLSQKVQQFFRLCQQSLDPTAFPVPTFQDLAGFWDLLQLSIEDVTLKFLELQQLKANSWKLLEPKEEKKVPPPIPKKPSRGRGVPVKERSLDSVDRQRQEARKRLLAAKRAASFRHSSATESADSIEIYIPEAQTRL

T2: GKAP1 (native, rat brain extracts) (rat, UniProt P97836 1-992)
T2 construct: mature
T2 sequence (looked up): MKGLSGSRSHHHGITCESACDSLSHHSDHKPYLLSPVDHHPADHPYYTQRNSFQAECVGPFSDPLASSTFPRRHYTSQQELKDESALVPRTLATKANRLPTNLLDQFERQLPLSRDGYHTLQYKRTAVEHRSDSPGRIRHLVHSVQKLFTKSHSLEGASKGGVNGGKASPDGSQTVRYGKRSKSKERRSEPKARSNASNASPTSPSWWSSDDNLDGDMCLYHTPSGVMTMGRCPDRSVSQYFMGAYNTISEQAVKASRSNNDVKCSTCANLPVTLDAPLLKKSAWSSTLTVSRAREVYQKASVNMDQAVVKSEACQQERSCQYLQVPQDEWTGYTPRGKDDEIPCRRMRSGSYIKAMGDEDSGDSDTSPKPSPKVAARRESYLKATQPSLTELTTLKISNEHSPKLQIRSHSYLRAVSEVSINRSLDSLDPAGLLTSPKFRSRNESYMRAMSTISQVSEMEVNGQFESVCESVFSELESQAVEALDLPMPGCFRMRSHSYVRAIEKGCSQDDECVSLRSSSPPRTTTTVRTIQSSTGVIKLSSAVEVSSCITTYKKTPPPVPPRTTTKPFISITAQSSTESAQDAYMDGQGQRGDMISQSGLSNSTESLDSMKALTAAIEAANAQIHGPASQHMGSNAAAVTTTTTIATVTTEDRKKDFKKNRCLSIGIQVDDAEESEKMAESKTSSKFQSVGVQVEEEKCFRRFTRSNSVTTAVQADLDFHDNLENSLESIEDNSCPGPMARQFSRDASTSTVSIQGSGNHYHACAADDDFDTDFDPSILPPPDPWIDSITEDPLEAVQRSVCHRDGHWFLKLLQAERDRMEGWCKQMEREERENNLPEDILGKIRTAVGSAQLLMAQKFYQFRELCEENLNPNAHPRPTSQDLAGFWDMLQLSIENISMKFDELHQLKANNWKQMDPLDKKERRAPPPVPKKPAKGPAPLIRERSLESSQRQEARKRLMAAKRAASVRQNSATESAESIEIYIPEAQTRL

B1: SAP102 PDZ1-3 (GST fusion) (other, UniProt Q62936 149-484, looked up)
chain: EIVLERGNSGLGFSIAGGIDNPHVPDDPGIFITKIIPGGAAAMDGRLGVNDCVLRVNEVDVSEVVHSRAVEALKEAGPVVRLVVRRRQPPPETIMEVNLLKGPKGLGFSIAGGIGNQHIPGDNSIYITKIIEGGAAQKDGRLQIGDRLLAVNNTNLQDVRHEEAVASLKNTSDMVYLKVAKPGSLHLNDMYAPPDYASTFTALADNHISHNSSLGYLGAVESKVTYPAPPQVPPTRYSPIPRHMLAEEDFTREPRKIILHKGSTGLGFNIVGGEDGEGIFVSFILAGGPADLSGELRRGDRILSVNGVNLRNATHEQAAAALKRAGQSVTIVAQYR
notes: domain: PDZ 1-3; also called SAP102 PDZI-3; not shown: glutathione S-transferase fusion partner
B2: GST-GKAP(carboxy-terminal) (other, UniProt P97836-5 591-666, looked up)
chain: MDPLDKKERRAPPPVPKKPAKGPAPLIRERSLESSQRQEARKRLMAAKRAASVRQNSATESAESIEIYIPEAQTRL
notes: domain: carboxy-terminal 76 amino acids; also called carboxy-terminal 76 amino acids of GKAP1a fused to GST; not shown: glutathione S-transferase fusion partner
B3: recombinant mGluR5 carboxy-terminal 241 amino acid peptide (receptor, UniProt P31424 963-1203, looked up)
chain: AAGGGSGPGVAGAGNAGCTATGGPEPPDAGPKALYDVAEAEESFPAAARPRSPSPISTLSHLAGSAGRTDDDAPSLHSETAARSSSSQGSLMEQISSVVTRFTANISELNSMMLSTAATPGPPGTPICSSYLIPKEIQLPTTMTTFAEIQPLPAIEVTGGAQGATGVSPAQETPTGAESAPGKPDLEELVALTPPSPFRDSVDSGSTTPNSPVSESALCIPSSPKYDTLIIRDYTQSSSSL
notes: domain: carboxy-terminal 241 amino acids; Expressed in heterologous cells for GST pulldown; also called mGluR5 carboxy-terminal tail; mGluR5 C-terminal tail
B4: GRIP PDZ 4-6 (GST fusion) (other, UniProt P97879 471-754, looked up)
chain: EVVLTADPVTGFGIQLQGSVFATETLSSPPLISYIEADSPAERCGVLQIGDRVMAINGIPTEDSTFEEANQLLRDSSITSKVTLEIEFDVAESVIPSSGTFHVKLPKKHSVELGITISSPSSRKPGDPLVISDIKKGSVAHRTGTLELGDKLLAIDNIRLDSCSMEDAVQILQQCEDLVKLKIRKDEDNSDEQESSGAIIYTVELKRYGGPLGITISGTEEPFDPIIISSLTKGGLAERTGAIHIGDRILAINSSSLKGKPLSEAIHLLQMAGETVTLKIKKQT
notes: domain: PDZ 4-6; also called PDZ domains of GRIP; not shown: glutathione S-transferase fusion partner

Experiment [1] addresses T1, carboxy-terminal 347 amino acids of …. The experiment can be described thus: GST pulldown from HEK293 lysate.
Experiment [2] concerns the target T2, GKAP1 (native, rat brain extracts). The experiment can be described thus: GST pull-down from rat brain extracts.
For experiment [3], the target named is B1. The experiment can be described thus: GST pulldown from extracts of heterologous cells.
Experiment [4] concerns the target B4. The experiment can be described thus: GST pulldown from extracts of heterologous cells.

In the case of B1, the binding result in experiment [1] is “no binding”.
Take B2: the binding result in experiment [2] is given as “no binding”.
In the case of B3, the binding result in experiment [3] and in experiment [4] was “no binding” each time.
Turning to B4, the binding result in experiment [1] is “no binding”.
